Like-named read-outs stand apart in the source and are kept apart here.
Assays:
[1] = target: T1, Thioredoxin (hsTXN) (Homo sapiens, UniProt P10599 1-105); assay: NMR HSQC titration
T1 sequence: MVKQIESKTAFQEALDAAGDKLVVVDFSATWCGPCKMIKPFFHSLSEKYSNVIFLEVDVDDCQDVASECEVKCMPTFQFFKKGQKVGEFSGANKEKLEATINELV

[2] = target: T2, Syntrophin-beta-1 PDZ domain (Homo sapiens, UniProt Q13884 111-196); assay: NMR HSQC titration
T2 sequence: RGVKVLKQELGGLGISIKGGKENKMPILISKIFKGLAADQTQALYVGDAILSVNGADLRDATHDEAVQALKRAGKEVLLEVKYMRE

[3] = target: TRIM25 PRY/SPRY domain (UniProt Q14258 439-630); assay: NMR HSQC titration
[4] = target: T3, End binding protein 1 (dmEB1) (Drosophila melanogaster, UniProt Q0E9N1 1-291); assay: EMSA
T3 sequence: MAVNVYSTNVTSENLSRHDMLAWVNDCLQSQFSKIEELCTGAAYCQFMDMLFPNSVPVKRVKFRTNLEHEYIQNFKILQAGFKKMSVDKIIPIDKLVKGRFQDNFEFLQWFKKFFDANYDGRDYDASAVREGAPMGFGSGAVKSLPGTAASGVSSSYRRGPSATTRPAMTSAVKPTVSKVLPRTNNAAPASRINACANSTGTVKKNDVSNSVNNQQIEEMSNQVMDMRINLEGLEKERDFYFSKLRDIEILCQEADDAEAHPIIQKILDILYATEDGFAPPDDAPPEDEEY

[5] = target: T1, Thioredoxin (hsTXN); assay: NMR HSQC titration; remark: listed apart in the source
[6] = target: T2, Syntrophin-beta-1 PDZ domain; assay: NMR HSQC titration; remark: listed apart in the source
[7] = target: FPR1 (FK506-binding protein 1) (Saccharomyces cerevisiae, UniProt P20081 1-114); assay: NMR HSQC titration
Chain of FPR1 (FK506-binding protein 1) (P20081 whole entry): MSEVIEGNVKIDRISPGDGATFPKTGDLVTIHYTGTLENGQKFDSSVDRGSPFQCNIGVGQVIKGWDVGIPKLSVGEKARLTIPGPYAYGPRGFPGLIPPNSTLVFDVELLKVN

Chain of TRIM25 PRY/SPRY domain (Q14258 439-630): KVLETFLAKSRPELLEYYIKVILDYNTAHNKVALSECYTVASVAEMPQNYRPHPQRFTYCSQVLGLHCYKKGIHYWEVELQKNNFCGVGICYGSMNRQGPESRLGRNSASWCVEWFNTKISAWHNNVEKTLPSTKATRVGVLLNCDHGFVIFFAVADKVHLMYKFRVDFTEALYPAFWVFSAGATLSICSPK

## AAAAAAAA (ssRNA) [poly(A) 8-mer]
[1]
  binding result: no binding

## CCCCCCCC (ssRNA) [poly(C) 8-mer]
[1]
  binding result: no binding
[2]
  binding result: no binding

## UUUUUUUUUUUUUUU (ssRNA) [poly(U) 15-mer]
[3]
  binding result: binds

## UUUUUUUUUUUUUUUUUUUUUUUUU (ssRNA) [poly(U) 25-mer, 32P probe]
[4]
  binding result: binds

## UUUUUUUU (ssRNA) [poly(U) 8-mer]
[5]
  binding result: no binding
[6]
  binding result: no binding

## UUUUUUUUU (ssRNA) [poly(U) 9-mer]
[7]
  binding result: no binding

Source: PMC8456996
